Laboratory results published in article doi:10.1101/2020.05.08.084889 (bioRxiv, 2020).

B1: Desmocollin-3 complete extracellular region, biotinylated (Dsc3-ATH) (domain or fragment)
chain: RWAPIPCSMQENSLGPFPLFLQQVESDAAQNYTVFYSISGRGVDKEPLNLFYIERDTGNLFCTRPVDREEYDVFDLIAYASTADGYSADLPLPLPIRVEDENDNHPVFTEAIYNFEVLESSRPGTTVGVVCATDRDEPDTMHTRLKYSILQQTPRSPGLFSVHPSTGVITTVSHYLDREVVDKYSLIMKVQDMDGQFFGLIGTSTCIITVTDSNDNAPTFRQNAYEAFVEENAFNVEILRIPIEDKDLINTANWRVNFTILKGNENGHFKISTDKETNEGVLSVVKPLNYEENRQVNLEIGVNNEAPFARDIPRVTALNRALVTVHVRDLDEGPECTPAAQYVRIKENLAVGSKINGYKAYDPENRNGNGLRYKKLHDPKGWITIDEISGSIITSKILDREVETPKNELYNITVLAIDKDDRSCTGTLAVNIEDVNDNPPEILQEYVVICKPKMGYTDILAVDPDEPVHGAPFYFSLPNTSPEISRLWSLTKVNDTAARLSYQKNAGFQEYTIPITVKDRAGQAATKLLRVNLCECTHPTQCRATSRSTGVILGK
modifications: biotin on the Avi-tag (BirA enzyme)
B2: E-cadherin complete extracellular region, biotinylated (Ecad-ATH) (domain or fragment)
chain: DWVIPPISCPENEKGPFPKNLVQIKSNRDKEIKVFYSITGQGADAPPVGVFIIERETGWLKVTEPLDREQIAKYILYSHAVSSNGNAVEDPMEIVITVTDQNDNKPEFTQAVFQGSVTEGALPGTSVMQVTATDADDDVNTYNAAIAYSILTQDPLLPSSMMFTINKDTGVISVLTTGLDREGVPMYTLVVQAADLQGEGLTTTATAVITVTDINDNPPIFNPTTYQGRVPENKANVEIAVLKVTDADVPDTPAWRAVYTILNNNNDQFVVTTDPVTNDGILKTTKGLDFEDKQQYVLYVTVVNVTPFEVILSTSTATVTVDVEDVNEAPIFIPCPKVVSIPEDFGVGQEITSYTAEDPDTYMEQRITYRIWRDAAGWLEVNPESGAIFTRAELDREDFEHVKNSTYEALIIAIDNGSPVATGTGTLLLVLSDVNDNGPIPEPRNMDFCQKNPQPHVINIIDPDLPPNTSPFTAELTHGASVNWTIEYNDPARESLILKPKKTLELGDYKINLKLTDNQNKDQVTTLDVFVCDCEGVVNSCKRTAPYAEAGLQVPA
modifications: biotin on the Avi-tag (BirA enzyme)
B3: Recombinant rat EfnB1-FC (Fc fusion)
chain: ATPLAKNLEPVSWSSLNPKFLSGKGLVIYPKIGDKLDIICPRAEAGRPYEYYKLYLVRPEQAAACSTVLDPNVLVTCNKPQQEIRFTIKFQEFSPNYMGLEFKKYHDYYITSTSNGSLEGLENREGGVCRTRTMKIVMKVGQDPNAVTPEQLTTSRPSKESDNTVKTATQAPGRGSQGDSDGKHETVNQQEKSGPGAGGSGSGDTDSFFNSK

Tests used:
[1] = biological target: the molecule itself; experiment: single molecule AFM force measurement
Recombinant rat EfnB1-FC = biological target: B3; experiment: single molecule AFM force measurement

Binder	binding result [1]	fold of heterophilic binding over EfnB1 homophilic binding (Recombinant rat EfnB1-FC)
B1	binds	
B2		~3 fold
B3	binds	
